Consider one molecule from patent US20240294644A1 (BLUEFIN BIOMEDICINE, published 2024).

Test [1] concerns the target T1, mouse VTCN1 expressed on 293 cells (mouse, UniProt Q7TSP5 25-257).
T1 construct: whole, on cells
T1 sequence (looked up): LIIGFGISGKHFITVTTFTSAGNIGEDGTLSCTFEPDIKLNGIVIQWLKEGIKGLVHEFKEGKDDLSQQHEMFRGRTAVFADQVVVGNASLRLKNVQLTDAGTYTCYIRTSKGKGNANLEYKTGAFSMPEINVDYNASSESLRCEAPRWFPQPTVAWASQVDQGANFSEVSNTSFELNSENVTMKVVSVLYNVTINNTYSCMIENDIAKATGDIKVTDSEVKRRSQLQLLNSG
Put plainly: flow cytometry on 293-VTCN1 (mouse) cells.

For test [2], the target named is T2, VTCN1 IgC domain only construct expressed on 293 cells (human, UniProt Q7Z7D3 150-259, limits assumed).
T2 construct: The construct lacks the IgV domain
T2 sequence: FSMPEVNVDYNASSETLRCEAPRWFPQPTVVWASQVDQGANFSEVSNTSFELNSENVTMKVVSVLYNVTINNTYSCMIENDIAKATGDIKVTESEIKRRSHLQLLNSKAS
In words: flow cytometry on 293-VTCN1-IgC domain cells.

Test [3] addresses T3, VTCN1 IgV domain only construct expressed on 293 cells (human, UniProt Q7Z7D3 29-149, limits assumed).
T3 construct: The construct lacks the IgC domain
T3 sequence: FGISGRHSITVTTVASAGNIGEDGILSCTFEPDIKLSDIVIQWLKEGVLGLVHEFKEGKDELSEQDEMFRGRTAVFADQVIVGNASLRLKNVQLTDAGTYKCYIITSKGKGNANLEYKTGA
Put plainly: flow cytometry on 293-VTCN1-IgV domain cells.

Test [4] has as its target T4, human VTCN1 expressed on cells (293-VTCN1 cells; SKBR3, MX-1 and ZR-75-1 cells that express it naturally) (human, UniProt Q7Z7D3 25-282).
T4 construct: The cDNA was bought from Origene
T4 sequence: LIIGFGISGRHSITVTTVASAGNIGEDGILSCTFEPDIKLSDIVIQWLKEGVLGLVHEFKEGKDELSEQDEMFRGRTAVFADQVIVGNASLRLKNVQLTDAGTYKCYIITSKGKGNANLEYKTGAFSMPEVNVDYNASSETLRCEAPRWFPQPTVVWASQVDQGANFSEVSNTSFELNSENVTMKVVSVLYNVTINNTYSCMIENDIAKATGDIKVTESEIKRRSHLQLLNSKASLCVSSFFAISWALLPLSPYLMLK
In words: flow cytometry and immunofluorescence on cells.

B1: 7C8 (antibody, V domains shown)
VH: QVQLQESGPGLVKPSETLSLTCAVSGYSISSGYYWGWIRQPPGKGLEWIGSIYHSGTTYYNPSLKSRVTISVDTSKNQFSLKLNSVTAADTAVYYCATYSSGWYFYFDYWGQGTLVTVSS
VL: DIQLTQSPSFLSASVGDRVTITCRASQGISSYLAWYQQKPGKAPKLLIYVASTLQSGVPSRFSGSGSGTEFTLTISSLQPEDFATYYCQQLNSYPITFGQGTRLEIK
notes: Fully human antibody; also called VTCN1 antibody 7C8
As for B1, the binding result in test [1] is “binds”; in test [2], “no binding”; in test [3], “no binding”; in test [4], “binds”.
